Our source for the stoichiometry N values is paper PMC3358469.

Assay [1] concerns the target Dec (phage decoration protein), tagged form not told for the experiment. The assay is described as follows: cryo-EM structure.
Assay [2] has as its target Dec (phage decoration protein) with a hexa-histidine tag at the C-terminus. The assay is described as follows: cryo-EM structure.

Dec (phage decoration protein), tagged form not told for the experiment, sequence (Q8HAE6 whole entry): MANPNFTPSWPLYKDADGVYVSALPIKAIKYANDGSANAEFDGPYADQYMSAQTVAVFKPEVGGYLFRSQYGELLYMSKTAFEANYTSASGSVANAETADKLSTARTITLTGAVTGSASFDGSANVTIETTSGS
Dec (phage decoration protein) with a hexa-histidine tag at the C-terminus, sequence (Q8HAE6 whole entry): as above

In turn, “Dec (phage decoration protein), tagged form not told for the experiment (natural protein)” returned a stoichiometry N in assay [1] of 3.
In the case of “Dec (phage decoration protein) with a hexa-histidine tag at the C-terminus (natural protein)”, in assay [2], the stoichiometry N was determined as 3.

Broadly, the stoichiometry N is a count of units in the complex or per binding partner.
